Reference: the domain aggregation screens of Martell et al. (2025)

Experiment: soluble fraction after stress (log2 fold change); higher = more stays soluble; pooled small domains, quantitative proteomics
Conditions: stress: 75 degC
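Note: 20 min heating vs room temperature control held 20 min.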

Sequence	soluble fraction (log2)
HMGKNISEEDMLGYFKKIDLDYDAETKEVIAPTFRHDLFRLADLAEEVARFFGYDNIPTTLPSGEAT	0.185
HMGKPAGLIRELGNHPEDEKPVTLNNGRFGPYVKHGKVMASLTKADSPDDITFDRAIELIAIKAEKMAAKG	0.173
HMGKPTPASQVATRWLTGNLPESLPVAGPAPSFEALARTVSTDLHPRSVLQELVRLGVAEEANGVVTLRRQ	0.0474
HMGKPVTMELLIPYSQGSLVHRISEAGEVAKTEYQNDGTYMQVTFTPSAKDHALMQEVASYRI	0.653
HMGKSDDSLAAEKFIQHVRKNGELSYEQAYRMVHAYFPDFRNFEGMVSGAVKSGYLILIQKSTGLFLRAKE	-3.68
HMGKTEMPFSTFLTEVDKGNIVSVDIRGSEISGNFRDGKGFKTYSPNYPNLVEKLSAKGVAITAGPR	0.389
HMGKTKFTEMSALELKAYAELNNNSMHWVYRMLYIGGGDVGFRKGMKELGYSGKFIWMTLERLKKS	-1.24
HMGKTTQEIEERSSTSTLTLTQTPKEIISVQGKKSDQSFFTNIQYTQNGKVIVPKQTGIYDTIKVVFTVSL	-1.48
HMGKVLIYKPNMSVSDVAIRLGISNAEIIKRLMGLGVMTSINQTIDRDTIELVAMDLGFSIEN	-1.81
HMGLAGVQSDVKVSFDGDLLVVTSDIARSFNLFAVDGRLIRSVNLIAGRNEIRGLERGFYLAEKQKIFV	-1.93
HMGLAWTVEGRTVLLGRTADRIELYNVGGGLVALARESDRISAPGVGLYVVRVVSDGQSVSQKIWIT	-2.39
HMGLDMSLEREQHRALREASQWYARLADEQVDSDAERAWRHWVAADEANQRAWQYIEAVSQRFDG	-0.605
HMGLDNEGFERLRQKITRLLSEEALPVKELVDSFASKMRQEVLETLAFLQQEGVIEEKNGKLFLK	-0.189
HMGLIDNLTRIMEKKNISAYQLEKAGIVKQTTFTSWKKGTQPALDKIIKIMQYIEVTPNELFGY	-2.95
HMGLKWVYYTNIEPDGNKINNQKLYDILKQKFVYPVIISRDELDSMELKDLTYDSYIDVEGRYFKPYNLD	-2.04
HMGLNPSILVKLGNANIKTIDNLADLASDELKEILEDISITSKEADEIIMRARSSWFEEDDKKEDNI	0.0765
HMGLPAWVPQNYIDRVTAIYDYSADKDDELTFNEGSTIFVLKKNDDGWWEGVMDGVTGLFPGNYVEAT	-0.971
HMGLQLTPVRRRVLEILLHEHRALGAYDILDKLRSEGLGSQPPVAYRALDFLVTHGFAHKIERLNAF	-0.829
HMGLQRLTVSPEDAGVRIDKYLAEQLPDITRSYLQKLLKDGSVQMNGKPVKASTKTAVGAVIALTIPEP	-0.26
HMGLSAEAARMAIQDAGLSKEDFAQKLGIKKVERVVEWEAGTSKPTFVQAQKIANATNIPFGYLFLVNPPK	0.285
HMGLTRRAQLEVADANLKRLYPGMHQSWVTAIAEYLHSSYWRYINSLEPEYAASIQRVYEQHIDAM	-0.0229
HMGLTYEQILTDVQRFVTQNHADTLSNEGNPEEARKLLKDYILQYVQNRSYHVDGQTTEELVDSLYED	-0.231
HMGLVDSLEPLLRRVYEALPQRRSMTTERLAVAAGLDEESVKVALARLQLSAFVGVDERGWHRSL	-2.98
HMGLVLIDSYNDIGSAKLITNKIRNLGLIFEENENKINVFAGPFEKNDINLKIDFLIRNGYTNAQLY	-3.08
HMGLVQQSAQKSDDAAKLMAANNLNAAQSKYQLPDEAEKDFFTFAFERGYAVEDFVDAGLVDKIMADFSA	-0.447
HMGLVVIGTEAGYPAEKAGILAGDRIRKLNGAAVPDYDTFLTALAARKGEPSAIELERDGKTLEVTVSPL	0.105

Sequence	soluble fraction (log2)
HMGLWWTEAERELVKTTIEQLYKDTNIAEPVDSKNLRASIPALKAMRTGLSAENQARVDTLLGALQV	-0.462
HMGMAGILDSARMASFIQEKLGYGGGQIRASVMGGHGDDMVPLPRYSTVAGVPLSDVLTQNEIDEMFAQ	-0.0337
HMGMDALIGRRVFVSEEILPGDTGGRMAVDGDSWRAISVGTASNIPAGTEVRIRGHQSLVLEVEP	-0.169
HMGMEENLLKERKQILMDIMKSKEYQPMKVKELAMVLNVPKEDREELRYVLNELMNEGKIVESKKGKFSIA	0.129
HMGMESFWNRVANLLNTSTVVELAQILDVKRSTLSSWIHSDRRPPMEVLLKITRLTGVDIHRLE	-2.59
HMGMETQLSPKEKSIYTIIQNRPNIQSGEVSEKLAIPLPTVKRILSDLINKGLIEKQGSGRNVSYTI	0.338
HMGMFNENLRFLRQKRQMSQQAFASILGIPRTTYSEYEKGNTEPNLKLLIRLSELLDVSLDNLISDDLTHN	-2.82
HMGMKTSQKLARQREIVRLIRAQTIRTQAELADALRERAFPVSQPTLSKDIAELGLIKVPLPDSGYRYQLP	-1.73
HMGMNKEHFIIELKIYLKALNPKDQAIILAKYKALFDARVAEGETEEQVAKSLGKPRVIAEEILKEQGIE	-3.26
HMGMSMNEFLNNRLEQLAVEAVDKSSLGEEIFFYAEPATINLFKDAVDEDEYKVVFPVLKSIIEVEQKLSR	-1.24
HMGMTAPIPGVVLKVSVLPGQKVERGDELLTIEAMKMFNVMRSPSSGTIATVHIKDGDRVVQGQPLVTFA	-0.555
HMGMTTSILDDVIGMGPKRKKALLKAFGSFGALRNATLEEIKQTHTVPEQVAEDVYAVLVQYNSKSE	-0.681
HMGMVKLNEEYLEKVKKHRKELHITQLQISKKLGWSLSRYQRFESGFYKEIEDDAPKKIKEEFGIDYSLL	-0.726
HMGNGALLTLTVKERQVIQLVAEGKSNKQIARDLNVTPETIKSHMKNIFAKLKVDNRAQAAVMVQQ	-2.16
HMGNGDTNERIATLMQILAKQESIINQYGLENPVVSPQMYVRTLKKVVELSGFKDASSYFADIPDGWKA	0.0405
HMGNIADARRDASYVFLIGEWAKSSNLTEKKLAGLIQSNHLDIKYGITVTDVIADIRKYKNDPTYNPF	-2.19
HMGNIKVPSVMGMTLEGAEKVAKDNGAVIEVLEYKESTEEDGTIIEQSPKADMTVATLEKISVVISGK	0.161
HMGNIYKALLGKLEKQLGFLPEGTKLPPEQELAEKFGVSKPTLRRALAELAVRGIIVKQNGIGSVVAGS	-0.55
HMGNKKLVLKLSKKLIKIPSFLNIYSVKLTKNGRELEINLDKSQNEAIDIINLIKKNNISFLEFDIKKR	-1.43
HMGNLIIFYDAQTGSAPLLKAVKTSGATLVYEYKNLHGIAIRPSSKTSIEDAIAYFKKVNGVLSVE	-3.77
HMGNPSGLPLPRFASTRSEPINVRVGPGQKYDIAWTYLKSGIPVEIIQEFDTWRKIRDFDGAEGWIHQNLL	-1.22
HMGNSRNDQDLQTQIIKILAEGPASSRTLIETLTIEDEAALLKTLKRLLMNKKISLTPSNLYKL	-1.06
HMGPAAGVVEKYNLAHLSTGEMIRKEIAEGSDFGKMAAGIINKGELLSDEFVVALIENSIEHHKNVDGFLF	-0.195
HMGPAVGAIRVEGNKRVEPETVRTYLTFNVGDPYDLAKVDESLKALFATGLFQDVRIRREGNTVVIVVVEN	-0.701
HMGPAYQTQRQEAFAALSEIAAKNPQLMQVAGDLVFRAADFPMADELADRLAKTLPPQLQDKKGQP	-0.455
HMGPEISEDAKVVFDRLKNHDEILLNNFKSEFDLSNKKWDKIIKELRGNDLISIIKSEDGNLFIKP	-0.125

Sequence	soluble fraction (log2)
HMGPELGENEKLIFDIIKKESKMELGILKAQVDLSNKKWDKALKGLATHGLTKVNKTDDGLFIELI	-0.555
HMGPIITKTYNLSYATARDVNDIIKSKKSARGDIVIDTRTNSLIVSDVQEKIDLIDEIVATL	-0.368
HMGPLSDRSVADWLLRLGLADTANNRLLLQVMHAAGLPLERTAVRAMRETAAGRPEGTDAREWLQAAAAAQ	-0.571
HMGPNSVPDLRGKSLRQAMKMVNDLELKAIFEGEGIVVGQVPAPGKPVPETKILKITLSLEPY	-1.58
HMGPPAVGSKLQDARKAQQLSLDELSKRAGVSKSMLSEVERNQANPTVGVLWRLATALGISLTDLLG	-1.11
HMGPPLISLDDGLAKGFGVGVGDTLTINILGRRITATIASLREIDWQSLRFDFAVVLSPGVLEGA	0.237
HMGPRKAGSEATRQKILDAAEILFAERGFHSVSVRDITTEAGVDVALINYHFGSKQLLFETVFMRR	-0.32
HMGPRPLPAEFTHPSLRALLALGTTRGGVTSADVKTALEAASVPAGRRAAVLRALDDNGIEVHTEP	-0.0155
HMGPSEVTLDNFVGKNYTDVVNDTSYQFTFKKEEKSDQTHAAGIIIAQSPKKGIKVKSNSTVTLTVSTG	0.359
HMGPVDFYQMFISELQHLAEKPVTVDALIESTQLHKSQLTEWLKRAVDDGVVKKLNRPARFQVKNK	0.0567
HMGPVRDLGLLESAAHRPTTALWGRDVYATIEKKAAALLDSLVRDRPLADGNKRLGWLAALV	0.291
HMGPYGAGSAAPAEDGSGPEGWTVKGNAKSMLYHTEGSPYYGRTNADVWFRDEESAEAAGFRRWDRK	-0.0366
HMGQAELPYSEFLREVNNGQVKSVIIEGSEITGFYKTSGTSFNVIAPDDPKLVERLMAQGVEVRAQPA	0.144
HMGQDLEAFLLKAVGQLDQGDGVTLDALLKVAVSNGGFVREVAEAKLDDMLDAGTLDEPRFGWFRVGAT	-0.41
HMGQDLSYYIKIVQNQQPVDPLTGEPKVLDYGEVIRQAQILQMLDTGDLDRDKAIGQLSMKDAL	0.292
HMGQELRFVIQDHEAGIRLDHYLTQQVEGYSRSHLRKLMDQGLITVDGSYRKAGYRLNVGDVIHVVIPPTR	-0.813
HMGQELTPVERTALDIAARDGKVSTRILAQEAGIGLRTASKTLAALAERGLLTWHGTSRRDPQQHYTS	-0.0688
HMGQISDESVLKEMVVQLIADNPKEVASYLGGKETLLQWFMGQVARATKGKADPQAVKQLLLDEFEKLK	0.0498
HMGQKETIVDLLKTNGTMTQLALAEAIYGDKNHGPNIYSVLMGRVNSGAVLRTGSQPAYYSLSG	0.209
HMGQKMLTIELQEKVNKMPDNLASYDLKLSADGMSLIYKYSLKSERTGITALLQELKNAGLVMRDLKTEQ	-0.641
HMGQLSDREALTVLAREALVELPRAAGDYRNGRTAALQSLVGRVMRKTAGRGNPALLQEIFRSLL	-0.542
HMGQLVVHQIKGEASRLDKFLVVNIPKYSRSVWREMINNGSVQVNGRVVKPHLLVKEGDIITWSS	-1.4
HMGQLVYPAGVYDVNKSYITDSNSAPYVLDKTDNNYYVLNTQMTWKGTEQDNKTPSQSYEESGGSVWLLFD	-0.118
HMGQPAVSSRDVAEQFGKEHRNVIQSIKNLIAENSALTFMFIEDTYTAGTGKKYPMYYMNRDGFTLLA	0.337
